The text below walks through data of article PMC13364712.

This experiment deals with actin filaments (actin from Gallus gallus skeletal muscle) (Gallus gallus (chicken)) (UniProt P68139). The experiment in a line: co-sedimentation; 4 µM EGFP–SFM peptide with 0–200 µM actin filaments in F buffer, 1 h at room temperature, 100,000g for 30 min; pellet read by anti-EGFP western blot; one-site specific binding fit; apparent.

As for EGFP–Lifeact (peptide), the Kd came out at 2 µM.
“EGFP-tagged USP54 SFM peptide, wild type”: the Kd was determined as 6 µM.
